Laboratory results: patent publication US20240325557A1, “TREATMENT OF CANCER” (INNATE PHARMA, priority 2020, published 2024)
Entries after “also recorded” stand apart in the source; their conditions may differ.

T1: Hu-Nectin4 IgC1C2-V5 (modified Nectin-4 lacking the Ig-like V domain, C1C2 construct) (Homo sapiens, UniProt Q96NY8)
T1 construct: expressed in transfected cells; host or cells: CHO
T1 sequence (Q96NY8 148-510): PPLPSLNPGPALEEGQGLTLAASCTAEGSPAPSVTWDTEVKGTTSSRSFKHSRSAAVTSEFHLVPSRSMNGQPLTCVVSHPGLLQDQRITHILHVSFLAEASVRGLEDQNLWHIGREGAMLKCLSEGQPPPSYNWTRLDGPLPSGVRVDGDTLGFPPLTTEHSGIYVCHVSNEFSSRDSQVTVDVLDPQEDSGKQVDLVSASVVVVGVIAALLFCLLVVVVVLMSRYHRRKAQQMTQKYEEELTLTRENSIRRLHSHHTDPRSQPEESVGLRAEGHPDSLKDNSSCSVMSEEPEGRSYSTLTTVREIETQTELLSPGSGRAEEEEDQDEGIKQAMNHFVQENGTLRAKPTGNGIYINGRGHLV

T2: wild-type human Nectin-4 (Homo sapiens, UniProt Q96NY8)
T2 construct: expressed in transfected cells; host or cells: CHO (huNectin4 Cl.3C8)
T2 sequence (Q96NY8 32-510): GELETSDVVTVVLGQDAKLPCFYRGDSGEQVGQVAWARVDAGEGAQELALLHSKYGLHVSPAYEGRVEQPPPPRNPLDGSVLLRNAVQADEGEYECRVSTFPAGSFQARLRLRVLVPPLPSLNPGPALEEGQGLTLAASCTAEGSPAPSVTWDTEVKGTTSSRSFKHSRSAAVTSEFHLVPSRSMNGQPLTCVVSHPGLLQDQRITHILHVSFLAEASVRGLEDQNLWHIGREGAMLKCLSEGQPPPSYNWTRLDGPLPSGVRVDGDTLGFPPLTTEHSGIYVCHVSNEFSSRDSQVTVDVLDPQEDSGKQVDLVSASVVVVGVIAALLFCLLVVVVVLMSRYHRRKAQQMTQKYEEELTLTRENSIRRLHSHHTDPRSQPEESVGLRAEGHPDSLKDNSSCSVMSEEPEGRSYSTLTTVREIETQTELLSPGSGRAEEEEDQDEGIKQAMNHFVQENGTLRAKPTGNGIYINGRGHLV


Key:
[1] = molecular target: T1, Hu-Nectin4 IgC1C2-V5 (modified Nectin-4 lacking the Ig-like V domain, C1C2 construct); test: Flow cytometry binding to cells expressing the Nectin-4 C1C2 construct
Procedure: (§1) The characterization of the binding of the antibodies on Nectin-4 domains was performed by flow cytometry using cells made to express the wild-type human Nectin-4 protein and cells made to express a modified Nectin-4 having the Ig-like C2 type 1 and the Ig-like C2 type 2 domains and lacking the Ig-like V domain (the C1C2 construct). The latter protein additionally bears a V5 tag for flow cytometry cell sorting, and cells were used as Nectin4-C1C2-V5 sorted cells.
Wild-type Nectin-4 (the CI.3C8 cell line), a C2 construct (containing the Ig-like C2 type 2 domain and lacking both the V and the C1 domains) and the C1C2 construct allow the determination of whether test antibodies bind to the V or different C domains. Briefly, nucleic acid sequences encoding different human Nectin-4 domains were amplified by PCR. The PCR products were inserted into an expression vector at appropriate restriction sites. A leader peptide, and for C1C2 and C2 an N-terminal V5 tag having the amino acid sequence […] (SEQ ID NO: 41), were added, and expression at the surface of cells was confirmed by flow cytometry. The amino acid sequences of the resulting different human Nectin-4 domain fragment-containing proteins are shown below (V5 tag underlined). The vectors were then transfected into the CHO cell line to obtain stable clones expressing the different Nectin-4 domain proteins at the cell surface.

wild-type human Nectin-4 = molecular target: T2, wild-type human Nectin-4; test: Flow cytometry binding to wild-type Nectin-4 expressing CHO cells
Procedure: plates of hybridoma supernatants were tested for binding on the wild-type human Nectin-4 expressing CHO cell line by flow cytometry. Briefly, Nectin-4 expressing cells were used at 0.2×10^6 cells by well in a buffer of PBS, BSA 0.5%, EDTA 5 mM. The first antibody was incubated with cells for 1h at +5±3° C. in 50 μL of supernatant. […] Acquisition HTFC flow cytometer (Intellicyt), with data analysis on ForeCyt™ software.
as §1
Wild-type Nectin-4 (the CI.3C8 cell line), a C2 construct (containing the Ig-like C2 type 2 domain and lacking both the V and the C1 domains) and the C1C2 construct allow the determination of whether test antibodies bind to the V or different C domains. Briefly, nucleic acid sequences encoding different human Nectin-4 domains were amplified by PCR. The PCR products were inserted into an expression vector at appropriate restriction sites. […] The amino acid sequences of the resulting different human Nectin-4 domain fragment-containing proteins are shown below (V5 tag underlined). The vectors were then transfected into the CHO cell line to obtain stable clones expressing the different Nectin-4 domain proteins at the cell surface.

[2] = Binding to HEK-293T cells, negative control of the point mutant test; set-up: species or system human
Procedure: Nectin-4 mutants were generated by PCR. The sequences amplified were run on agarose gel and purified using the Macherey Nagel PCR Clean-Up Gel Extraction kit. The purified PCR products generated for each mutant were then ligated into an expression vector, with the ClonTech InFusion system. The vectors containing the mutated sequences were prepared as Miniprep and sequenced. After sequencing, the vectors containing the mutated sequences were prepared as Midiprep using the Promega PureYield™ Plasmid Midiprep System. HEK293T cells were grown in DMEM medium (Invitrogen), transfected with vectors using Invitrogen's Lipofectamine 2000 and incubated at 37° C. in a CO2 incubator for 48 hours prior to testing for transgene expression. The targeted amino acid mutations are shown in Table 2 below, listing the residue present in wild-type Nectin-4/position of residue/residue present in mutant Nectin-4, with position reference being to the Nectin-4 protein with leader peptide shown in SEQ ID NO: 1.

| Molecule | binding to the C1C2 construct [1] | binding to whole (wild-type) human Nectin-4 protein (wild-type human Nectin-4) | association, EXPI medium (negative control) [2] |
| --- | --- | --- | --- |
| N41 (antibody, V domains shown) VH: QVQLKQSGPGLVQPSQSLSITCTVSGFSLTNYGVHWVRQSPGKGLEWLGVIWSGGSTDYNAAFISRLSISKDTSKSQVFFKMNSLQADDTAIYYCARELIHAMDNWGQGTSVTVSS VL: DIQMTQSPASLSVSVGETVTITCRASENIYSNLAWYQQKQGNSPQLLVFAATNLADGVPSRFSGSGSGTQYSLKINSLQSEDFGTYYCQHFWGTPTFGGGTKLEIK | lost all binding to the C1C2 construct | bound to the whole Nectin-4 protein | − |
| 5E7 (antibody, V domains shown) VH: QVQLQQPGAELVKPGASVKLSCKASGYIFTSYWMHWVKQRPGQGLEWIGEIDPSDSYTNYNQKFKGKATLTLDKSSSTTYMQLSSLTSEDSAVYYCVRGYGNYGDYWGQGTTLTVSS VL: DVVMTQAAFSNPVTLGTSASISCRSSKSLLHSNGITYLYWYLQKPGQSPQLLIYQMSNLASGVPDRFSSSGSGTDFTLRISRVEAEDVGVYYCAQNLELPWTFGGGTKLEIK | partial loss of binding to the C1C2 construct; also recorded: retain binding to the C1C2 construct | lower plateau | − |
| 10B12: anti-Nectin-4 antibody, VH SEQ ID NO: 24, VL SEQ ID NO: 25, binds junction of domain C1 and V (antibody, listed as Mus musculus, V domains shown) VH: QVQLQQPGAELVKPGASVKLSCKASGYTFTSYWMHWVKQRPGQGLEWIGEIDPSDSYTNYNQKFKGKATLTVDKSSSTAYMQLSSLTSEDSAVYYCVRGYGNYGDYWGQGTTLTVSS VL: DIVMTQAAFSNPVTLGTSASISCRSSKSLLHSNGITYLYWYLQKPGQSPQLLIYQMSNLASGVPDRFSSSGSGTDFTLRISRVEAEDVGVYYCAQNLELPWTFGGGTKLEIK | partial loss of binding to the C1C2 construct; also recorded: retain binding to the C1C2 construct | lower plateau | − |
